Test results from the supplement of paper PMC9112550, “Optimization of the antimicrobial peptide Bac7 by deep mutational scanning” (BMC Biology, 2022).

System: Escherichia coli TOP10
Assay: shrunken log2 fold change of peptide-encoding DNA abundance (4.5 h post-induction vs induction); higher = less antimicrobial activity (less host growth inhibition)
Settings: time post-induction: 4.5 h; library: site-saturation at positions 5, 18, 19, 20
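Further: peptides expressed intracellularly from a pBAD plasmid library in pooled LB shake-flask culture, induced with 0.3% L-arabinose, DNA abundance read by NGS, three biological replicates, DESeq2 with apeglm shrinkage.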

| Sequence | shrunken log2 fold change |
| --- | --- |
| RRIRHRPPRLPRPRPRPSQSPRP | -0.22 |
| RRIRVRPPRLPRPRPRPPHAPRP | 0.351 |
| RRIRWRPPRLPRPRPRPDTEPRP | 0.14 |
| RRIRFRPPRLPRPRPRPRMYPRP | -0.151 |
| RRIRHRPPRLPRPRPRPDYVPRP | -0.165 |
| RRIRGRPPRLPRPRPRPIRFPRP | 0.0151 |
| RRIRGRPPRLPRPRPRPYYDPRP | -0.294 |
| RRIRFRPPRLPRPRPRPIGKPRP | -0.0112 |
| RRIRDRPPRLPRPRPRPGMYPRP | -0.00172 |
| RRIRMRPPRLPRPRPRPALIPRP | 0.136 |
| RRIRCRPPRLPRPRPRPMRTPRP | 0.962 |
| RRIRNRPPRLPRPRPRPNVDPRP | 0.112 |
| RRIRERPPRLPRPRPRPAPEPRP | 0.236 |
| RRIRSRPPRLPRPRPRPHERPRP | 7.23e-05 |
| RRIRERPPRLPRPRPRPVEAPRP | 0.21 |
| RRIRHRPPRLPRPRPRPKSQPRP | -0.149 |
| RRIRVRPPRLPRPRPRPKASPRP | 0.0977 |
| RRIRSRPPRLPRPRPRPGVCPRP | 0.562 |
| RRIRQRPPRLPRPRPRPLGPPRP | 0.23 |
| RRIRVRPPRLPRPRPRPYYEPRP | -0.632 |
| RRIRHRPPRLPRPRPRPNDYPRP | -0.56 |
| RRIRYRPPRLPRPRPRPIKPPRP | -0.0229 |
| RRIRLRPPRLPRPRPRPEFEPRP | 0.0191 |
| RRIRIRPPRLPRPRPRPQAVPRP | -0.0119 |
| RRIRYRPPRLPRPRPRPLMYPRP | -0.48 |

| Sequence | shrunken log2 fold change |
| --- | --- |
| RRIRMRPPRLPRPRPRPVRWPRP | 1.38 |
| RRIRDRPPRLPRPRPRPKAWPRP | 0.107 |
| RRIRPRPPRLPRPRPRPCNPPRP | -0.0662 |
| RRIRLRPPRLPRPRPRPLTFPRP | -0.633 |
| RRIRVRPPRLPRPRPRPELWPRP | 0.459 |
| RRIRQRPPRLPRPRPRPYTSPRP | -0.0321 |
| RRIRIRPPRLPRPRPRPNHNPRP | -0.518 |
| RRIRFRPPRLPRPRPRPKMWPRP | 0.348 |
| RRIRPRPPRLPRPRPRPIVEPRP | 0.233 |
| RRIRTRPPRLPRPRPRPDVYPRP | 0.00573 |
| RRIRIRPPRLPRPRPRPHTWPRP | -0.401 |
| RRIRKRPPRLPRPRPRPRESPRP | 0.159 |
| RRIRCRPPRLPRPRPRPANEPRP | 0.0681 |
| RRIRVRPPRLPRPRPRPPAAPRP | 0.397 |
| RRIRARPPRLPRPRPRPLESPRP | 0.486 |
| RRIRSRPPRLPRPRPRPIGSPRP | 0.136 |
| RRIRGRPPRLPRPRPRPGSRPRP | 0.565 |
| RRIRQRPPRLPRPRPRPPTTPRP | -0.0101 |
| RRIRVRPPRLPRPRPRPGYQPRP | -0.00841 |
| RRIRSRPPRLPRPRPRPAKGPRP | 0.176 |
| RRIRSRPPRLPRPRPRPMFFPRP | -0.274 |
| RRIRSRPPRLPRPRPRPMFIPRP | -0.212 |
| RRIRNRPPRLPRPRPRPVKEPRP | -0.0182 |
| RRIRSRPPRLPRPRPRPKNYPRP | -0.547 |
| RRIRKRPPRLPRPRPRPQERPRP | -0.0146 |

| Sequence | shrunken log2 fold change |
| --- | --- |
| RRIRQRPPRLPRPRPRPVKTPRP | 0.139 |
| RRIRMRPPRLPRPRPRPKPFPRP | 0.236 |
| RRIRSRPPRLPRPRPRPYIPPRP | -1.28 |
| RRIRERPPRLPRPRPRPWAMPRP | -0.129 |
| RRIRGRPPRLPRPRPRPNWGPRP | 0.44 |
| RRIRHRPPRLPRPRPRPFHRPRP | 0.00911 |
| RRIRTRPPRLPRPRPRPLMQPRP | 0.19 |
| RRIRTRPPRLPRPRPRPNSRPRP | -0.0848 |
| RRIRARPPRLPRPRPRPAYGPRP | 0.0552 |
| RRIRVRPPRLPRPRPRPFHPPRP | -0.309 |
| RRIRKRPPRLPRPRPRPSEHPRP | -0.183 |
| RRIRHRPPRLPRPRPRPVGPPRP | 0.195 |
| RRIRRRPPRLPRPRPRPICDPRP | 0.309 |
| RRIRPRPPRLPRPRPRPSMHPRP | 0.828 |
| RRIRDRPPRLPRPRPRPYFTPRP | -0.573 |
| RRIRTRPPRLPRPRPRPPIHPRP | -0.323 |
| RRIRDRPPRLPRPRPRPYMWPRP | 0.0589 |
| RRIRERPPRLPRPRPRPKWWPRP | 0.397 |
| RRIRRRPPRLPRPRPRPHRHPRP | 0.0704 |
| RRIRIRPPRLPRPRPRPQPVPRP | -0.169 |
| RRIRVRPPRLPRPRPRPMWCPRP | -0.139 |
| RRIRERPPRLPRPRPRPSGTPRP | -0.117 |
| RRIRYRPPRLPRPRPRPVQEPRP | -0.149 |
| RRIRFRPPRLPRPRPRPWGAPRP | 0.0596 |
| RRIRHRPPRLPRPRPRPHLHPRP | -0.513 |

| Sequence | shrunken log2 fold change |
| --- | --- |
| RRIRYRPPRLPRPRPRPLFCPRP | -0.579 |
| RRIRMRPPRLPRPRPRPPKSPRP | 0.478 |
| RRIRMRPPRLPRPRPRPRLSPRP | 0.494 |
| RRIRWRPPRLPRPRPRPNLYPRP | -0.169 |
| RRIRQRPPRLPRPRPRPFCTPRP | -0.246 |
| RRIRNRPPRLPRPRPRPCCGPRP | -0.148 |
| RRIRMRPPRLPRPRPRPYVEPRP | -0.133 |
| RRIRLRPPRLPRPRPRPGTWPRP | 0.0714 |
| RRIRARPPRLPRPRPRPVCCPRP | 0.573 |
| RRIRCRPPRLPRPRPRPNRKPRP | -0.127 |
| RRIRMRPPRLPRPRPRPCANPRP | -0.0263 |
| RRIRWRPPRLPRPRPRPSMRPRP | 0.707 |
| RRIRYRPPRLPRPRPRPKIPPRP | -0.21 |
| RRIRDRPPRLPRPRPRPMECPRP | 0.0176 |
| RRIRQRPPRLPRPRPRPAFAPRP | 0.344 |
| RRIRARPPRLPRPRPRPQWWPRP | 0.464 |
| RRIRWRPPRLPRPRPRPMWQPRP | 0.016 |
| RRIRARPPRLPRPRPRPMHDPRP | 0.341 |
| RRIRVRPPRLPRPRPRPQPSPRP | 0.00981 |
| RRIRRRPPRLPRPRPRPTVFPRP | 0.721 |
| RRIRLRPPRLPRPRPRPRFGPRP | 0.145 |
| RRIRVRPPRLPRPRPRPLKYPRP | -0.136 |
| RRIRHRPPRLPRPRPRPLCEPRP | 0.197 |
| RRIRKRPPRLPRPRPRPWHIPRP | -0.0551 |
| RRIRGRPPRLPRPRPRPLYDPRP | 0.135 |

| Sequence | shrunken log2 fold change |
| --- | --- |
| RRIRRRPPRLPRPRPRPILCPRP | 0.48 |
| RRIRVRPPRLPRPRPRPVHMPRP | -0.0089 |
| RRIRCRPPRLPRPRPRPWYAPRP | -0.529 |
| RRIRPRPPRLPRPRPRPCSQPRP | -0.257 |
| RRIRWRPPRLPRPRPRPLGSPRP | -0.0308 |
| RRIRMRPPRLPRPRPRPKFNPRP | -0.111 |
| RRIRRRPPRLPRPRPRPDYFPRP | -0.0877 |
| RRIRTRPPRLPRPRPRPYIWPRP | -0.329 |
| RRIRCRPPRLPRPRPRPALGPRP | 0.38 |
| RRIRNRPPRLPRPRPRPMATPRP | -0.0123 |
| RRIRKRPPRLPRPRPRPRETPRP | 0.0512 |
| RRIRWRPPRLPRPRPRPCRCPRP | -0.0961 |
| RRIRRRPPRLPRPRPRPRLAPRP | 0.62 |
| RRIRERPPRLPRPRPRPGKEPRP | 0.0125 |
| RRIRSRPPRLPRPRPRPTQMPRP | 0.502 |
| RRIRQRPPRLPRPRPRPMWVPRP | 0.551 |
| RRIRLRPPRLPRPRPRPMCRPRP | -0.0985 |
| RRIRFRPPRLPRPRPRPPEQPRP | -0.0209 |
| RRIRGRPPRLPRPRPRPMMDPRP | 0.66 |
| RRIRFRPPRLPRPRPRPLFIPRP | -0.652 |
| RRIRDRPPRLPRPRPRPEPFPRP | -0.137 |
| RRIRWRPPRLPRPRPRPYISPRP | -0.816 |
| RRIRYRPPRLPRPRPRPKQCPRP | -0.17 |
| RRIRTRPPRLPRPRPRPDMIPRP | 0.00205 |
| RRIRARPPRLPRPRPRPYDMPRP | -0.0195 |
